Target: T1, 重组人IL-2蛋白 (human, UniProt P60568 21-153)
T1 construct: also called 人白介素-2; 重组表达人IL-2
Experiment: SPR, Biacore 3000; antibody at 333 nM, recombinant human IL-2 at 64, 32, 16, 8, 4 nM

T1 sequence (P60568 21-153 limits assumed): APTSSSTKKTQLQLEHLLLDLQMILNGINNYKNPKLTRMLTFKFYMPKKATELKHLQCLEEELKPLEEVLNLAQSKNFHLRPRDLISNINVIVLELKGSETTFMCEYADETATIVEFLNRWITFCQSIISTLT

B1: 抗人IL-2蛋白兔单克隆抗体A (antibody, V domains shown)
VH: QSVAESGGRLVTPGTPLTLTCTASGFSLTTYAMSWVRQAPGKGLEWIAIIYIDGTTYYGSWAKGRFTISKTSTTVDLRIISPTTEDTATYFCAKWYVGEMDLWGPGTLVTVSS
VL: DIVMTQTPASVEAAVGGTVTINCQASQSVYRDNYLAWYQQKPGQRPKLLIYGTSTLASGVSSRFKGSGSGTQFTLTISDLECADAATYYCQSYVYSSTIDNAFGGGTEVVVKG
notes: Recombinant rabbit monoclonal antibody made in 293 cells and purified on protein A; also called 人IL-2兔单克隆抗体A
B1 gave a Kd of 0.899 nM.

B2: 抗人IL-2蛋白兔单克隆抗体B (antibody, V domains shown)
VH: QSLEESGGRLVTPGGSLTLTCTVSGIDLSTGGVSWVRQAPGKGLEWIGIISRHTNTYYASWAKGRFTISKTSSTTVDVKITSPTIEDTATYYCARVSSGDGLYAFDPWGPGTLVTVSS
VL: AIEMTQTPSPVSAAVGGTVTINCQASEDIETYLAWYQQKPGQPPRLLIYSGSTIASGVSSHFKGSGSGTEFTLTISDLECADAATYYCQCTSYASGYWNQAFGGGTEVVVRG
notes: Recombinant rabbit monoclonal antibody made in 293 cells and purified on protein A; in the Biacore assay it is unlabelled; also called 人IL-2兔单克隆抗体B
With B2 the Kd was 0.293 nM.

Reference: patent CN111499746A (YUROGEN BIOSYSTEMS LLC, dated 2020)
